In publication PMC4359790:

molecular target: bovine fetuin (bovine) (UniProt P12763); assay: Corning Epic label-free (resonant waveguide grating, Enspire reader)

| Substance | response (change in wavelength) at 20 μg/ml rHA [pm] |
| --- | --- |
| recombinant hemagglutinin (rHA) of A/Brisbane/59/2007 (H1N1) (natural protein; modification not given) | 80 |
| recombinant hemagglutinin (rHA) of A/Hangzhou/3/2013 (H7N9) (natural protein) | 80 |
| recombinant hemagglutinin (rHA) of B/Brisbane/60/2008 (natural protein) | 140 |
